Substitutions are numbered along the chain they refer to. Positions of bridges follow the written chain, without caps; N, C: chain ends. Non-standard residues stand in square brackets, D forms with d. No end group written: not given here. S5 = C=CCCC[C@](C)(N)C(=O)O
How the values were obtained:
Bfl-1 [1] = molecular target: T1, Bfl-1 (Homo sapiens, UniProt Q16548); test: Bfl-1:Warhead SAHB conjugation assay; format: binding; details: conjugation with Bfl-1
T1 sequence (Q16548 1-175): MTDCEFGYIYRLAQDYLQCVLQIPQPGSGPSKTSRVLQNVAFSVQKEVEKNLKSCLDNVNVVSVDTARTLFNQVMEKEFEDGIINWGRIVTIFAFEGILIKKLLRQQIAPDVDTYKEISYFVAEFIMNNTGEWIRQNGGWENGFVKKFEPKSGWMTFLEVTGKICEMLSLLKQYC
Procedure: Proteins were serially diluted from 1 μM, then combined with FITC-labeled SAHB and polarization measured at 5 min on a microplate reader. We then calculated dissociation constants (KD) by nonlinear regression analysis of dose-response curves. […] Samples were then combined with loading dye, run on a 12% Bis-Tris SDS-PAGE, and stained with Coomassie. The same setup was used for all antiapoptotic proteins tested.

BFL-1ΔC [2] = molecular target: T2, BFL-1ΔC (Homo sapiens, UniProt Q16548); test: In vitro covalent conjugation assay (DTT reduction, GSSG oxidation); format: binding; details: DTT 10 mM then GSSG 12 mM; Coomassie, FITC scan
T2 construct: cDNA encoding BFL-1ΔC (aa 1-153) was cloned into the pET19b expression vector; made in house; host or cells: Escherichia coli BL21(DE3) LOBSTR
T2 sequence (Q16548 1-153): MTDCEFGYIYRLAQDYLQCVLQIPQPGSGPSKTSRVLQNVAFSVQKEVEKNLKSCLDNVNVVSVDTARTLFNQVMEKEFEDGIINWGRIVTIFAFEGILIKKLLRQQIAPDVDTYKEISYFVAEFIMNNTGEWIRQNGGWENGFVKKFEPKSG
Procedure: (§1) Biolayer Interferometry: Binding analyses of NOXA peptide interactions with BFL-1ΔC were performed on an Octet RED384 system (Fortebio, Menlo Park, Calif.) at 30° C. Super streptavidin (SSA) tips were prewetted in 1× kinetics buffer (PBS, pH 7.4, 0.01% BSA, 0.002% Tween-20) and then conjugated to NOXA SAHBs bearing an N-terminal biotin-PEG linker (10 μg/mL). Excess streptavidin was quenched by incubation with 2 μg/mL biocytin. The tips were then washed with kinetics buffer and soaked in a serial dilution of BFL-IAC for 10 min to measure association rate, followed by a 15 min incubation in kinetics buffer to measure dissociation rate. Dissociation constants were calculated using Octet Data Analysis version 9.0. […] After this incubation in a reducing environment, the mixture was diluted 5-fold into 50 mM Tris pH 8.0, 100 mM NaCl, 12 mM GSSG and incubated in the dark for an additional 30 min at RT. […] The gel was rinsed with water, subjected to FITC scan (Typhoon FLA 9500, GE Healthcare) and then Coomassie staining.

Bfl-1 [3] = molecular target: T1, Bfl-1; test: Competitive binding assay after pre-forming the Bfl-1:NOXA disulfide bond; details: Bfl-1:NOXA disulfide bond pre-formed
Procedure: The functional impact of the Bfl-1:NOXA disulfide bond formation was evaluated using competitive binding assays and liposomal release assays.

MCL-1ΔNΔC = molecular target: T3, MCL-1ΔNΔC (Homo sapiens, UniProt Q07820); test: In vitro covalent conjugation assay (oxidizing conditions); format: binding
T3 construct: MCL-1ΔNΔC (aa 170-327) and BCL-XLΔC (aa 1-212) constructs were cloned into pGEX-4T-1; GST (N, cleaved yes); made in house; host or cells: Escherichia coli BL21(DE3)

BCL-XLΔC = molecular target: T4, BCL-XLΔC (Homo sapiens, UniProt Q07817); test: as above; format: binding
T4 construct: MCL-1ΔNΔC (aa 170-327) and BCL-XLΔC (aa 1-212) constructs were cloned into pGEX-4T-1; GST (N, cleaved yes); made in house; host or cells: Escherichia coli BL21(DE3)

BFL-1ΔC [4] = molecular target: T5, BFL-1ΔC (Homo sapiens, UniProt Q16548, C19S/C4S/C55S); test: In vitro covalent conjugation assay (DTT reduction, GSSG oxidation); format: binding; details: Coomassie, FITC scan
T5 construct: cDNA encoding BFL-1ΔC (aa 1-153) was cloned into the pET19b expression vector; made in house; host or cells: Escherichia coli BL21(DE3) LOBSTR
T5 sequence (Q16548 1-153 C4S/C19S/C55S): T2 sequence (Q16548 1-153) with C4S, C19S, C55S
Procedure: as §1

BFL-1ΔC [5] = molecular target: T6, BFL-1ΔC (Homo sapiens, UniProt Q16548, C19S/C4S); test: as above; format: binding; details: Coomassie, FITC scan
T6 construct: cDNA encoding BFL-1ΔC (aa 1-153) was cloned into the pET19b expression vector; made in house; host or cells: Escherichia coli BL21(DE3) LOBSTR
T6 sequence (Q16548 1-153 C4S/C19S): T2 sequence (Q16548 1-153) with C4S, C19S
Procedure: as §1

Bfl-1 [6] = molecular target: T1, Bfl-1; test: Bfl-1:NOXA conjugation assay (disulfide bond, GSSG oxidation); format: binding; details: non-reducing SDS-PAGE
Procedure: Next, the impact of the Cys25 in NOXA was investigated. […] The distance between the sulfurs of the cysteine residues is 3.5 A according to the previously determined crystal structure of the bound proteins (PDB ID 3MQP). […] To examine the impact of Cys25 in NOXA on target interaction, we examined the binding of WT NOXA SAHB and NOXA C25S SAHB to Bfl-1 and to a variety of Bfl-1 cysteine mutants. In vitro conjugation assays were performed in order to verify the formation of the disulfide bond. Global reduction of the protein and the NOXA peptides, followed by the introduction of an oxidant such as GSSG led to production of a disulfide bond, shown as a 3 kDa shift on non-reducing SDS-PAGE (FIG. 4A). […] (FIG. 4A).
Fluorescence polarization assay: The solution-state equilibrium binding assay was used to determine binding affinities of the stapled peptides to the anti-apoptotic proteins. Proteins were serially diluted from 1 μM, then combined with FITC-labeled SAHB and polarization measured at 5 min on a microplate reader. We then calculated dissociation constants (KD) by nonlinear regression analysis of dose-response curves. […] Samples were then run on non-reducing SDS-PAGE, scanned for fluorescence, then stained with Coomassie. […] Plates were read following liposome lysis with 1% Triton X-100 to determine maximal release (F100). Percent ANTS/DPX release was calculated as […]. […]

GST-MCL-1ΔNΔC = molecular target: T7, GST-MCL-1ΔNΔC (Homo sapiens, UniProt Q07820); test: Streptavidin pull-down from anti-apoptotic protein mixture; format: binding; details: 1:1:1:1 mixture, 1 μM each, biotinylated SAHB
T7 construct: MCL-1ΔNΔC (aa 170-327) and BCL-XLΔC (aa 1-212) constructs were cloned into pGEX-4T-1; made in house; host or cells: Escherichia coli BL21(DE3)
Procedure: Streptavidin Pull-down: Recombinant His-BFL-1ΔC, BCL-XLΔC (tagless) and GST-MCL-1ΔNΔC (1 μM each) were combined and reduced with 3 mM DTT in PBS for 30 min at RT, and then incubated with 1 μM biotinylated SAHBA, SAHBA-3 or vehicle for 4 h at RT. The mixtures were then combined with PBS-washed high-capacity SA agarose (Thermo Fisher Pierce) and incubated with rotation for 2 h at RT. The beads were centrifuged at 3000 rpm, washed twice with NP-40 lysis buffer (1% NP40, 50 mM Tris pH 8.0, 100 mM NaCl, 2.5 mM MgCl2), once with PBS, and then bound protein eluted by boiling in 10% SDS containing 10 mg/mL biotin. Inputs (10%) and eluates were electrophoresed on a 12% Bis-Tris gel and then subjected to silver stain and imaging.

Bfl-1 [7] = molecular target: T1, Bfl-1; test: Liposomal release assay (Bfl-1 inhibition of BAX activation); format: biochemical
Procedure: Fluorescence polarization assay: The solution-state equilibrium binding assay was used to determine binding affinities of the stapled peptides to the anti-apoptotic proteins. Proteins were serially diluted from 1 μM, then combined with FITC-labeled SAHB and polarization measured at 5 min on a microplate reader. We then calculated dissociation constants (KD) by nonlinear regression analysis of dose-response curves. Bfl-1:NOXA conjugation assay: The conjugation assay was developed to test for disulfide bond formation in a non-reducing environment, 3:1 FITC-stapled peptide:protein molar ratio was combined in the presence of DTT, then diluted and incubated with 1.2 molar excess GSSG. Samples were then run on non-reducing SDS-PAGE, scanned for fluorescence, then stained with Coomassie. […] ANTS release and dequenching due to DPX dissociation (F) was measured over a period of 120 min with an M1000 Infinite plate reader (Tecan) with excitation and emission wavelengths of 355 nm and 520 nm, respectively. Plates were read following liposome lysis with 1% Triton X-100 to determine maximal release (F100). Percent ANTS/DPX release was calculated as […]. […]

T4 sequence (Q07817 1-212, stated change not applied): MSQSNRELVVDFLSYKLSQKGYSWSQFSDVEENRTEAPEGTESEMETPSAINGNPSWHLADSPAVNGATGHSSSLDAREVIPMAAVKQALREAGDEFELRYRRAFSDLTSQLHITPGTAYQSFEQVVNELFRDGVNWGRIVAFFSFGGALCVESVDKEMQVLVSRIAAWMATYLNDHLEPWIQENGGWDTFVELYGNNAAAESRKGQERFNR
T7 sequence (Q07820 170-327, stated change not applied): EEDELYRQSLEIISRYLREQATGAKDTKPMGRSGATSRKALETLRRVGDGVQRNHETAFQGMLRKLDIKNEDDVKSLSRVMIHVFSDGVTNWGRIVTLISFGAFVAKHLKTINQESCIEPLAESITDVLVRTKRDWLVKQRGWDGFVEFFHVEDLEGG
T3 sequence (Q07820 170-327, stated change not applied): as above

For `O=C(O)[C@H]1CCCCN1` [D-homoproline], the “covalent binding efficiency (comparative)” value (from here on “covalent binding efficiency”) (Bfl-1 [1]) was “less efficient”.

In the case of `O=C(O)[C@@H]1CCCCN1` [L-homoproline], the “covalent binding efficiency” value (Bfl-1 [1]) is reported as “less efficient”.

With `CN(C)C/C=C/C(=O)O` [trans-4-dimethylaminocrotonic acid] the “covalent binding efficiency” value (Bfl-1 [1]) was “less efficient”.

With “NOXA SAHBA C25S: stapled NOXA BH3 peptide with C25S substitution; SEQ ID NO:13 (AELEVESATQLR[S5]FGD[S5]LNFRQKLL; staple 13-17)” the “molecular weight shift (disulfide adduct) of wild-type BFL-1ΔC” value (BFL-1ΔC [2]) was “not” and the “availability of the Bfl-1 binding pocket to another FITC BH3 domain” value (Bfl-1 [3]) was “abrogated these inhibitory effects”.

In the case of “NOXA SAHBA: stapled NOXA BH3 (aa 19-43), i, i+4 hydrocarbon staple replacing R31 and K35, native C25; SEQ ID NO:9 (AELEVECATQLR[S5]FGD[S5]LNFRQKLL; staple 13-17)”, the “molecular weight shift or FITC labeling of MCL-1ΔNΔC” value (MCL-1ΔNΔC) is reported as “no molecular weight shift or FITC labeling”, the “molecular weight shift or FITC labeling of BCL-XLΔC” value (BCL-XLΔC) is reported as “no molecular weight shift or FITC labeling” and the “disulfide adduct with BFL-1ΔC C4S/C19S/C55S (lacks C55)” value (BFL-1ΔC [4]) is reported as “no adduct”. The “disulfide adduct with BFL-1ΔC C4S/C19S (only C55 present)” value (BFL-1ΔC [5]) was “molecular weight shift”, the “molecular weight shift (disulfide adduct) of wild-type BFL-1ΔC” value (BFL-1ΔC [2]) was “shift in the molecular weight” and the “covalent (disulfide) bond formation with Bfl-1, BCL-XL and MCL-1” value (Bfl-1 [6]) was “only Bfl-1 forms a covalent bond”. For the same compound, the “MCL-1ΔNΔC engagement in SA pull-down” value (GST-MCL-1ΔNΔC) was “prominent non-covalent capture”, the “availability of the Bfl-1 binding pocket to another FITC BH3 domain” value (Bfl-1 [3]) was “significantly decreased the availability of the Bfl-1 binding pocket” and the “anti-apoptotic effects of Bfl-1 on BAX” value (Bfl-1 [7]; Bfl-1:NOXA disulfide bond formed prior to assay) was “almost completely abrogates the effects of Bfl-1”. The “anti-apoptotic effects of Bfl-1 on BAX” value (Bfl-1 [7]; peptide added concurrently with Bfl-1) was “somewhat inhibited”.

From patent publication US11078246B2, “Peptides binding to Bfl-1” (Dana-Farber Cancer Institute, Inc., priority 2015, dated 2021)
